Reference: patent US20260028422A1 (CONCEPT TO MEDICINE BIOTECH, published 2026)
Like-named read-outs stand apart in the source and are kept apart here.

T1: human MerTK-his protein (human, UniProt Q12866 21-505)
T1 construct: extracellular domain; also called hMerTK-His; human MerTK protein
T1 sequence (looked up): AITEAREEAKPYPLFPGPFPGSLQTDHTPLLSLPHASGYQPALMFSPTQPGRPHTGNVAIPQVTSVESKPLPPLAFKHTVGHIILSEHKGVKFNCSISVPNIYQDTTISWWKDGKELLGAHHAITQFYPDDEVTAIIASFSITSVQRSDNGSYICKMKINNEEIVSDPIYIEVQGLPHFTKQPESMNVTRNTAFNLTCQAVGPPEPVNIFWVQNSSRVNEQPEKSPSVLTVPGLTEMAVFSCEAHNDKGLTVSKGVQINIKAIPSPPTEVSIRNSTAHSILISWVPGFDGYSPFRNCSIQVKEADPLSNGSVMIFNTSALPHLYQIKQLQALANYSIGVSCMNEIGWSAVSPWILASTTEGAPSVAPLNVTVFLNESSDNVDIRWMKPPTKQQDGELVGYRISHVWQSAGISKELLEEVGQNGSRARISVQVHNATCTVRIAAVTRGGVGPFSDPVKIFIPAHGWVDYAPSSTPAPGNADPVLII

T2: human MerTK expressed on cells (human, UniProt Q12866 21-999)
T2 construct: whole, on cells; also called CHO-K1-hMerTK; CHO-K1-MerTK
T2 sequence (looked up): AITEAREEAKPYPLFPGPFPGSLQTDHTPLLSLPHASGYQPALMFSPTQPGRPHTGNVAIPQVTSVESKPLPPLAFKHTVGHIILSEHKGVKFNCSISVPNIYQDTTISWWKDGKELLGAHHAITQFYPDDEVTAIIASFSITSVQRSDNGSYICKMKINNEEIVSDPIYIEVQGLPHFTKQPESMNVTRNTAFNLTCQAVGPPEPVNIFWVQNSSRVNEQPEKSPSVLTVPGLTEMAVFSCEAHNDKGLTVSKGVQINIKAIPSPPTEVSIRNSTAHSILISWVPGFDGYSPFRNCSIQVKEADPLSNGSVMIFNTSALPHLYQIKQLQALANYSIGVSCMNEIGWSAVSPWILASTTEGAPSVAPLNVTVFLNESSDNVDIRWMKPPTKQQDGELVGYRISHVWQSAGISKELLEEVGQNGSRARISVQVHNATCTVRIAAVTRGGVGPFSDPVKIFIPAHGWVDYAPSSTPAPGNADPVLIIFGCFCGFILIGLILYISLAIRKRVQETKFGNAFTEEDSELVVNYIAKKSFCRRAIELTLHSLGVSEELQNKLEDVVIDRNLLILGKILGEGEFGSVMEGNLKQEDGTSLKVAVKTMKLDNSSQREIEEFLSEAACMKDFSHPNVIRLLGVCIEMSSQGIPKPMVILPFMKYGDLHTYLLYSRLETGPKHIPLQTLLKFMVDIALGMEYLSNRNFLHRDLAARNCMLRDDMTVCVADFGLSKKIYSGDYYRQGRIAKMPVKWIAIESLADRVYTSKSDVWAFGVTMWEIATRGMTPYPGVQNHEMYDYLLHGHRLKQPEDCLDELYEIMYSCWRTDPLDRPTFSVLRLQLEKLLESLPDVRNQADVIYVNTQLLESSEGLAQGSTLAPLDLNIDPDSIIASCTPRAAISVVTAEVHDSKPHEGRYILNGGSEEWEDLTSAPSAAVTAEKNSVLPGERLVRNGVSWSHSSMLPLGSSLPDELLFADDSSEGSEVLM

T3: Human MerTK-mouse Fc fusion protein (human, UniProt Q12866 21-499, limits assumed)
T3 construct: also called hMerTK; Human MerTK-mouse Fe fusion protein
T3 sequence (looked up): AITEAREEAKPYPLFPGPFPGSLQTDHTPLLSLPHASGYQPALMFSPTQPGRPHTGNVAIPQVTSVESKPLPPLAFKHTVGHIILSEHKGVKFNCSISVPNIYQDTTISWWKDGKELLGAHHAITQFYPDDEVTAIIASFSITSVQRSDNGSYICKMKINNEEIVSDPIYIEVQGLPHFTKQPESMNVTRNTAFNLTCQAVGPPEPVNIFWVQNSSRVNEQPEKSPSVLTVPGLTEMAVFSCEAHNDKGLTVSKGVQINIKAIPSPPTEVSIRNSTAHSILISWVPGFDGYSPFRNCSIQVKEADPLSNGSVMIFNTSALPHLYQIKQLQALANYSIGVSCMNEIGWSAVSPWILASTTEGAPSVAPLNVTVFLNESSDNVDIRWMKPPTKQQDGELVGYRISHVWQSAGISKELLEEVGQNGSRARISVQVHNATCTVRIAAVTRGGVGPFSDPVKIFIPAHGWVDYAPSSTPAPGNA


Experiments:
human MerTK-his protein = biological target: T1, human MerTK-his protein; test: SPR Biacore T200, antibody captured on Protein A chip
Experimental: The binding affinity of the MerTK chimeric antibodies to human MerTK-his protein was tested with Biacroe™ T200 using a capture method. Briefly, the antibodies were captured with a Pro-A chip. […] The antigen was allowed to dissociate for 420-800 s. Data analysis was carried out using Biacore™ T200 evaluation software.

[1] = biological target: T2, human MerTK expressed on cells; test: FACS on SK-MEL-5 cells expressing human MerTK, geometric mean
Experimental: To evaluate the binding properties on MerTK expressed on cells, the chimeric monoclonal antibodies were analyzed for their binding to human melanoma cell line SK-MEL-5 expressing MerTK by FACS analysis. Briefly, SK-MEL-5 cells were firstly incubated with 5-fold serially diluted chimeric mAbs starting at 20 nM at 4° C. for 30 mins. After washing by FACS buffer, the PE conjugated anti-human IgG secondary antibody was incubated with the cell-antibody complex in the wells at 4° C. for 30 mins to detect the antibodies those bound to the cells. The MFI of PE was evaluated by QuantAnalyzer 16.

[2] = biological target: T3, Human MerTK-mouse Fc fusion protein; test: FACS blocking: binding of human MerTK-mouse Fc to Jurkat cells overexpressing human Gas6, MFI (AF488)
Experimental: (§1) To evaluate the blocking effects of anti-hMerTK mAbs on hMerTK binding to its ligand hGas6, a receptor blocking assay was set-up. Briefly, Jurkat cells engineered to overexpress human Gas6 were added to the 96-well microplates at a density of 5×10⁴ cells per well. Human MerTK-mouse Fe fusion protein (50 μL/well, […]) and the MerTK chimeric antibodies with a 3-fold serial dilution starting from 120 nM at a volume of 50 μL were added to the 96-well plates and incubated at 4° C. for 30 mins. After washing with FACS buffer, the plates were incubated with diluted Alex Fluor 488 conjugated goat anti-mouse IgG antibody for 30 mins at 4′C. After washing, the plates were analyzed by QuantAnalyzer 16.

[3] = biological target: T3, Human MerTK-mouse Fc fusion protein; test: as above; remark: listed apart in the source
Experimental: as §1

Binder	Kd (human MerTK-his protein) [nM]	koff (human MerTK-his protein) [s⁻¹]	kon (human MerTK-his protein) [M⁻¹ s⁻¹]	EC50 [1] [nM]	Top [1] [Geometric Mean]	IC50 [2] [nM]	IC50 [3] [nM]
10F7D9 chimeric monoclonal antibody (antibody, V domains shown) VH: QIQLVQSGPELKKPGETVKISCKASGYTFTNYGMNWVKQAPGKGLKWMGWINTYTGEPTYADDFKGRFAFSLETSASTAYLQINNLKNEDLATYFCATYGHYAWFAYWGQGTLVTVSA VL: QIVLSQSPAILSASPGEKVTMTCRASSSVSYMHWYQQKSGSSPKPWIYATSNLASGVPARFSGSGSGTSYSLTISRVEAEDAATYFCQQWGTKPLTFGAGTKLELK	4.29	0.00238	554000	0.025	7070	0.696	–
276C2D1 chimeric monoclonal antibody (antibody, V domains shown) VH: QVQLQQSGPELVKPGASVKLSCKASGYTFTSYDINWVKQRPGLGLEWIGWIYPRDGYTKYNEKFKGKATLAVDTSSSTAYMELHSLTSEDSAVYFCARGYYSNLYYFDYWGQGTTLTVSS VL: EVVLTQSPPTMAASPGEKITITCSASSSISSNYLHWYQQKPGFSPKLLIYRTSNLASGVPARFSGSGSGTSYSLTIGTMEAEDVATYYCQQGRSIPLTFGAGTKLELK	12.7	0.00223	175000	–	–	–	0.813
265F11B5 chimeric monoclonal antibody (antibody, V domains shown) VH: QVQLQQSGPELVKPGASVRLSCKASGYTFTTYDINWVKQRPGLGLEWIGWIYPRDGYTKYNEKFKGRATLAVDTSSSTAYMELHSLTSEDSAVYFCTRGYYDNLYYFDYWGQGTTLTVSS VL: EIVLTQSPTTVAASPGEKITITCSASSIISSNYFHWYQQRPGFSPKLLIYRTSNLASGVPARFSGSGSGTSYSLTIGTMEAEDVATYYCQQGRSVPLTFGAGTKLELK	1.22	0.000232	191000	–	–	–	0.798
293C2B7 chimeric monoclonal antibody (antibody, V domains shown) VH: QVQLQQSGPELVKPGASVKLSCKASGYTFTSYDINWVKQRPGQGLEWIGWIYPRDGYTKYKEKFKGKATLTVDTSSSTAYMELHSLTSEDSAVYFCARGFYSNLYYFDYWGQGTTLTVSS VL: EIVLTQSPTTMATSPGEKITITCSASSSISSNYLHWYQQKPGFSPKLLIYRTSNLASGVPDRFSGSGSGTSYSLTIGTMEAEDVATYYCQQGRSIPLTFGAGTKLELK	–	–	–	–	–	–	0.779
300A5A3 chimeric monoclonal antibody (antibody, V domains shown) VH: QVQLQQSGPELVKPGASVKLSCKASGYTFTTYDINWVKQRPGLGLEWIGWIYPRDGYTKYNEKFKGKATLAVDTSSSTASMELHSLTSEDSAVYFCARGYYDNLYYFDNWGPGTTLTVSS VL: ENVLTQSPTTVAASPGEKITITCSASSIISSNYLHWYQQKPGFSPKLLIYRTSNLASGVPARFSGSGSGTSYSLTIGTMEAEDAATYYCQQGRSVPLTFGAGTKLELK	1.36	0.00029	214000	–	–	–	0.867
254B4D9 chimeric monoclonal antibody (antibody, V domains shown) VH: QIQLVQSGPELKKPGETVKISCKASGYTFTAYGMSWVKQAPGKGLQWMGWINTYSGVPTYTDDFKGRFAFSLEASASTAFLQINNLKNEDTSTYFCARRAAVVAKYWYFDVWGTGTTVTVSS VL: DIQMTQSPSSLFASLGGKVIITCKSSQDINKRISWYQHKPGKGPRLLIHSTSSLQPGIPLRFSGSGSGRDYSFSISNLEPEDIATYFCLQYDNLLTFGAGTKLELK	11.9	0.000782	65500	0.18	4840	–	~0.773
85H8D5 chimeric monoclonal antibody (antibody, V domains shown) VH: QIQLVQSGPELKKPGETVKISCMASGYTFTTHGVTWVKQAPGQGLQRMGWINTYSGVPTYADDFKGRFVFSLETSANTAHLQINNLKNEDTATYFCARTNNYRYFDVWGTGTTVTVSS VL: QIVLSQSPAILSSSPGEKVTMTCRASSSVSYMHWYQQKPGSSPKPWIYATSNLASGVPARFSGSGSGTSYFLTISRVEAEDAATYYCQQWNTDPPTFGGGTKLEIK	11.4	0.00664	582000	0.022	6860	0.802	–
216G3D6 chimeric monoclonal antibody (antibody, V domains shown) VH: QVTLKESGPGILQPSQTLSLTCSFSGFSLSTSGMGVGWIRQPSGKGLEWLAHIWWDDDKHCNPALKSRLTISKDTSSNQVFLKIASLDTADTATYYCTQMTMTREFAYWGQGTLVTVSA VL: DIQMTQTISSLSASLGDRVTISCSAGQGISNYLNWYQQKPDGTVKLLIYYTSRLHSGVPSRFSGSGSGTDFSLTISNLEPEDIATYFCQQYSKFPYTFGGGTKLEIK	0.852	8.97e-05	105000	0.17	8270	0.802	–
247E5A8 chimeric monoclonal antibody (antibody, V domains shown) VH: DVQLQESGPGLVKPSQSLSLTCSVTGYSITGGYYWTWIRQFPGNKLEWMGYISYDGDNNYNPSLKNRISITRDTSKNQFFLNLNSVTTEDTATYYCAREGGRLRTMDYWGQGTSVTVSS VL: QIVLTQSPAIMSASPGEKVTITCRASSSVNYMHWFQQKPGTSPKLWIYTTSNLASGVPARFSGSGSGTSYSLTISRMEAEDAATYYCQQRSSYPFTFGSGTKLEIK	4.59	0.000596	130000	0.094	7160	0.787	–
280C6A3 chimeric monoclonal antibody (antibody, V domains shown) VH: QVQLQQSGPELVKPGASVKLSCKASGYSFTTYDINWVKQRPGQGLEWIGWIYPRDGSTKYNEKFKGKATLTLDTSSNTAYMGLHSLTSEDSAVYFCARGYYDNLYYFDYWGQGTTLTVSS VL: EIVLTQSPTTMAASPGEKITITCSASSSVSSNYLHWYQQKPGFSPKLLIYRTSNLASGVPARFSGSGSGTSYSLTIGTMEAEDVATYYCQQGRIVPLTFGAGTKLELK	3.08	0.000553	179000	–	–	–	0.701
